Results on nine substances are retold here after patent US20100291048A1.

One series has as its system ZFN 12257 (synthetic). Nature of the series: cell_activity. Particulars: K562, pair with 12329 (pairing inferred from adjacent sites), Surveyor assay.
The test system of the next series is ZFN 12270 (synthetic). Briefly: cell_activity. Particulars: K562, pair with 12273, Surveyor assay; 34.6% in enriched SupT1 pool, >40% in primary CD4 T cells.
Series [1] addresses HLA Class I. Nature of the series: flow cytometry on SupT1 clone B4, PE anti-mouse IgG secondary.
Series [2] addresses HLA Class I. Briefly: flow cytometry on parental SupT1 cells, PE anti-mouse IgG secondary.
In series [3] the target is HLA Class I. Nature of the series: flow cytometry on SupT1 clone A66, PE anti-mouse IgG secondary.
For series [4], the target named is HLA Class I. Briefly: flow cytometry on SupT1 clone B13, PE anti-mouse IgG secondary.
The test system of the next series is ZFN 12281 (synthetic). Nature of the series: cell_activity. Particulars: K562, pair with 12290 (pairing inferred from adjacent sites), Surveyor assay.
The subject of the next series is ZFN 12290 (synthetic). Briefly: cell_activity. Particulars: K562, pair with 12281 (pairing inferred from adjacent sites), Surveyor assay.
Another series relates to ZFN 12273 (synthetic). Briefly: cell_activity. To be noted: K562, pair with 12270, Surveyor assay; 34.6% in enriched SupT1 pool, >40% in primary CD4 T cells.
A further series concerns ZFN 12329 (synthetic). Nature of the series: cell_activity. To be noted: K562, pair with 12257 (pairing inferred from adjacent sites), Surveyor assay.
The target of series [5] is CXCR4 isoform b, WT (352 a.a.) (human) (UniProt P61073). Nature of the series: flow cytometry on parental SupT1 cells, PE anti-mouse IgG secondary.

A value given as a limit tells only on which side of the number the result lay.

UniProt P61073, sequence (P61073 whole entry, canonical isoform): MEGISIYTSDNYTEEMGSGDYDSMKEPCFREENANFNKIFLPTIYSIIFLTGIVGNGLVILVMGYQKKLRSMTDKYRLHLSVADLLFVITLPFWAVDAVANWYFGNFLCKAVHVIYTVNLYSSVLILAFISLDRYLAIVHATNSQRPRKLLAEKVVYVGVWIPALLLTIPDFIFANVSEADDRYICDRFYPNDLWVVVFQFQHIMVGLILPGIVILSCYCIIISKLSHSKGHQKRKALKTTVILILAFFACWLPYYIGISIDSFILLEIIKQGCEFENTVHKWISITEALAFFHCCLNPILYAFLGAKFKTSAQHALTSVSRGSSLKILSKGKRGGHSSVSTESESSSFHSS

For the substance “AGTCAGAGGCCAAGGAAGCTGTTGGCTG (double strand) [CXCR4 12257 target]”, in the series with ZFN 12257 (synthetic), the activity is > 20 % NHEJ.
In the case of “ATGACTTGTGGGTGGTTGTGTTCCAGTT (double strand) [CXCR4 12270 target]”, the activity in the series with ZFN 12270 (synthetic) was > 20 % NHEJ.
For the substance Anti-HLA Cl-I W6/32 (antibody), the Mean Channel Fluorescence with HLA Class I [1] is 152; in the series with HLA Class I [2] it was 83; with HLA Class I [3] it was 189; with HLA Class I [4] it was 170.
Turning to “CAGTTGATGCCGTGGCAAACTGGTACTT (double strand) [CXCR4 12281 target]”, in the series on ZFN 12281 (synthetic), the activity was > 20 % NHEJ.
For the substance “CCAGAAGGGAAGCGTGATGACAAAGAGG (double strand) [CXCR4 12290 target]”, the activity with ZFN 12290 (synthetic) is > 20 % NHEJ.
Consider “GGGTAGAAGCGGTCACAGATATATCTGT (double strand) [CXCR4 12273 target]”, for which the activity in the series with ZFN 12273 (synthetic) is > 20 % NHEJ.
For “TTGGTGGCGTGGACGATGGCCAGGTAGC (double strand) [CXCR4 12329 target]”, the activity in the series with ZFN 12329 (synthetic) is > 20 % NHEJ.
As for anti-CXCR4 NT (4G10) (antibody), in [5], the Mean Channel Fluorescence was determined as 136.
Turning to anti-CXCR4 mAb (12G5) (antibody), the Mean Channel Fluorescence in [5] is 35.
